Results: publication PMC5645467

Biological target: ΔIBB-importin α1 (as used for ITC) (mouse), P52293
Assay: ITC; nano-ITC, 20 °C; GST-RCC1 (300 µM) injected in 2.0 µl increments into 195 µl of ΔIBB-importin α3 or α1 (100 µM); 20 mM Tris-HCl pH 8.0, 150 mM NaCl, 5 mM BME, 0.1 mM PMSF; single set of binding sites model; triplicate
Conditions: remark: other sources report otherwise

B1: GST-RCC1 (full-length human RCC1, wild type), P18754 1-421 (natural protein)
chain: MSPKRIAKRRSPPADAIPKSKKVKVSHRSHSTEPGLVLTLGQGDVGQLGLGENVMERKKPALVSIPEDVVQAEAGGMHTVCLSKSGQVYSFGCNDEGALGRDTSVEGSEMVPGKVELQEKVVQVSAGDSHTAALTDDGRVFLWGSFRDNNGVIGLLEPMKKSMVPVQVQLDVPVVKVASGNDHLVMLTADGDLYTLGCGEQGQLGRVPELFANRGGRQGLERLLVPKCVMLKSRGSRGHVRFQDAFCGAYFTFAISHEGHVYGFGLSNYHQLGTPGTESCFIPQNLTSFKNSTKSWVGFSGGQHHTVCMDSEGKAYSLGRAEYGRLGLGEGAEEKSIPTLISRLPAVSSVACGASVGYAVTKDGRVFAWGMGTNYQLGTGQDEDAWSPVEMMGKQLENRVVLSVSSGGQHTVLLVKDKEQS
  Kd: 5.4 µM
  stoichiometry N: < 1
